Patent US8623997B2, “Variant Hhip1 protein and methods and uses thereof” (Curis, Inc., priority 2008, dated 2014)

What was measured:
Ptch1 = test: FACS assay of Shh649 binding to Ptch1 expressing 293 cells and its competition; set-up: species or system human
Method: (§1) Shh649 (1 nM) preincubated with indicated proteins was bound to Ptch1 expressing cells, washed and analyzed by FACS. The average mean Shh649 fluorescence intensity (MFI) of two independent dilution series was plotted versus inhibitor concentration, with error bars denoting standard deviations. […] Assays were carried out using octylated Ihh wildtype and T154I proteins. Concentration dependent relative luciferase units (RLU) are plotted as the average of four independent dilution series±standard deviation and normalized to the maximal Ihh WT stimulation on each plate as 100%. […] The data is representative of three independent experiments.
Shh is in the same orientation as in the Hhip-Shh complex in Panel A. Zn^2+ and Ca^2+ cations are shown. […] Surface representation of Shh with residues within 4.5 Å of Hhip (shaded gray) and Cdon (hatched areas). Area within dotted boarder indicates the boundaries of the Cdon footprint, which overlaps the Hhip binding surface. […] Shh histidine residues are shown as sticks with nitrogen atoms shaded dark. The Hhip L2 loop is shown in transparent surface and Zn^2+ cation is shown. Histidine 35 is not shown since the ordered portion of the Shh structure begins at L40. […] The spectral region of the histidine side chains is shown. […] The average mean Shh649 fluorescence intensity (MFI) of two independent dilution series was plotted versus protein concentration, with error bars denoting standard deviations. Ctrl refers to the His-6 (SEQ ID NO: 87) tagged HGF β protein. […] Shh649 (0.33 nM) was preincubated with 56 nM (170-fold excess) of Hhipβ12 wildtype or L2 mutant proteins, 5E1 or controls then bound to Ptch1 cells (black) or 293 cells (gray), washed and analyzed by FACS. Shh649 binding to Ptch1 cells in the absence of inhibitors was normalized to 100% and the data expressed as a percentage of this signal (average of two independent duplicates with standard deviations). Ctrl and CtrlFc refer to HGF β and the IgG1 isotype control Trastuzumab, respectively. The data is representative of at least three independent experiments.
Shh649, conjugated to Dylight 649 (Pierce) at its C-terminus (vide supra), was incubated at 0.33 or 1 nM for 1 h on ice with various Hhip or control proteins prior to incubation with HEK-293 cells (293) or 293 cells expressing full length human Patched-1 (Ptch1-293 clone 10) (Carpenter D. et al. (1998) Proc. Natl. Acad. Sci. USA 95:13630-13634) in FACS buffer (3% FBS in PBS) for 1 h on ice. After washing 3 times in FACS buffer, live cells (sorted by propidium iodide exclusion) were analyzed by flow cytometry in the APC channel using a FACSCalibur (BD Biosciences). Control proteins included His6-Shh, His6-Ihh, HGF β-His639, Trastuzumab (Genentech, Inc.) as a human IgG1 isotype control for Hhip1β12-Fc, and mIgG1 (Molecular Probes Z25105) as a murine Mab control for anti-Shh 5E1 Mab34.

Hh signaling = test: S12 Gli luciferase assay, activation of Hh signaling; type: cell-based, murine; settings: octylated Ihh wildtype and T154I proteins
Method: as §1
Briefly, S12 cells, which are 10T1/2 fibroblasts stably transfected with 8× Gli-binding sites fused to a luciferase reporter (Frank-Kamenetsky et al. (2002) J. Biol. 1:10), were plated at 10,000 cells/well of a white-walled clear bottomed 96-well plate (Costar 3610) for 48 hrs in regular growth medium (HG-DMEM, 10% FBS, 1% glutamine). After 24 h, the media was removed and Shh-producing HT29 cells at 20,000 cells/well were plated and the co-culture was grown in regular media. […] Gli-luciferase activity was measured using a HTS-Steady Lite luciferase detection kit (Perkin Elmer); multiple assays were carried out, each in triplicate. […]

biotinylated-ShhN-Cys = target: T1, biotinylated-ShhN-Cys (Homo sapiens, UniProt Q15465); test: Bio-layer interferometry (Octet) binding kinetics of Hhip1β12 variants to Shh; settings: bio-layer interferometry, compared with WT Hhip1β12
T1 construct: ShhN-Cys (residues 24-197); His6 (N); made in house; host or cells: E. coli Rosetta 2
Method: The binding kinetics of the Hhip1β12 fragments as well as Hhip1β12 mutants were measured by bio-layer interferometry in the presence or absence of 10 mM EDTA on an Octet (Fortébio). Streptavidin high binding FA biosensors were loaded with biotinylated-ShhN-Cys in kinetic buffer (Fortébio). The loaded biosensors were washed and transferred to wells containing Hhip1β12 protein at concentrations of 1.2, 1.0, 0.8 and 0.6 μM in kinetic buffer. Hhip1β12 association and dissociation was measured for 30 and 20 min, respectively. Kinetic parameters (kon and koff) and affinities (KD) were calculated from a non-linear fit of the data based on a 1:1 binding model between Hhip1β12 and Shh using the Octet software. Multiple independent measurements were performed.
In order to assess the contribution of residues in the Hhip1 L1, L2 and L3 loops for binding to Shh, a series of single alanine Hipβ12 mutants were made using the QuickChange DNA mutagenesis kit (Stratagene) using the manufacturer's protocol, and their affinity for Shh was measured by bio-layer interferometry (as described in Example 2B). These mutations included Hhip1β12 mutants 1312A, E381A, M382A, D383A, D378A, T418A, Q420A, E380A, D387A and ΔL2.

Shh signaling = test: Gli-luciferase co-culture signaling assay (S12 fibroblasts overlaid with Shh-producing HT29 cells); type: cell-based, murine S12 fibroblasts / human HT29 cells
Description: Due to the lack of both N- and C-terminal lipid modifications of Shh and the absence of other cellular components, the in vitro assays may not fully recapitulate Hip-Shh interactions occurring in a cellular environment. Therefore, a co-culture assay consisting of murine S12 fibroblasts stably transfected with a Gli luciferase reporter gene and (Frank-Kamenetsky et al. (2002) J. Biol. 1:10) and human colorectal adenocarcinoma HT29 cells that secrete fully lipid-modified Shh (Yauch et al. (2008) Nature 455:406) was used to determine which extracellular domains of Hhip1β12 mediate inhibition of Shh signaling in mammalian cells.
Briefly, S12 cells, which are 10T1/2 fibroblasts stably transfected with 8× Gli-binding sites fused to a luciferase reporter (Frank-Kamenetsky et al. (2002) J. Biol. 1:10), were plated at 10,000 cells/well of a white-walled clear bottomed 96-well plate (Costar 3610) for […] in regular growth medium (HG-DMEM, 10% FBS, 1% glutamine). After 24 h, the media was removed and Shh-producing HT29 cells at 20,000 cells/well were plated and the co-culture was grown in regular media. After 24 h, the media was changed to 0.5% serum HG-DMEM±Hhip1β12 fragments and further incubated for 24 hrs to stimulate signaling. Gli-luciferase activity was measured using a HTS-Steady Lite luciferase detection kit (Perkin Elmer); multiple assays were carried out, each in triplicate. Data were fit to a 4-parameter sigmoidal equation, from which the IC50 was derived using Kaleidagraph (Synergy Software).

[1] = target: T2, Shh649 binding to Hhip1β12 on 293 cells (Homo sapiens, UniProt Q15465); test: FACS: Ptch1-independent recruitment of Shh649 to 293 cells by Hhip1β12; settings: 520 nM
T2 construct: made in house; host or cells: Shh649: E. coli Rosetta 2; Hhip1β12: Tni insect cells; both added to HEK-293 cells
Description: The critical residue for 5E1 binding, S177 shown marked with an asterisk (*), resides in the area of Shh that interacts with both Hhip and Ptch1. Numbering refers to human Shh (Fuse, N. et al. (1999) Proc. Natl. Acad. Sci. USA 96:10992-10999; Pepinsky R. B. et al. (2000) J. Biol. Chem. 275:10995-11001). […] Black bars show binding to Ptch1 cells for comparison. Data are the average mean fluorescence intensity and SDs of two independent (duplicate and triplicate) experiments normalized to Shh649 binding to Ptch1 cells in the absence of other proteins (“Ctrl”) in the same way as FIG. 15J. Shh649 and Hhip1β12 are present at 45- and 10-fold higher concentrations respectively than in FIG. 15J in order to detect the Ptch1-independent binding of Shh649 to Hhip1β12.
Shh649, conjugated to Dylight 649 (Pierce) at its C-terminus (vide supra), was incubated at 0.33 or 1 nM for 1 h on ice with various Hhip or control proteins prior to incubation with HEK-293 cells (293) or 293 cells expressing full length human Patched-1 (Ptch1-293 clone 10) (Carpenter D. et al. (1998) Proc. Natl. Acad. Sci. USA 95:13630-13634) in FACS buffer (3% FBS in PBS) for 1 h on ice. After washing 3 times in FACS buffer, live cells (sorted by propidium iodide exclusion) were analyzed by flow cytometry in the APC channel using a FACSCalibur (BD Biosciences). […]

Molecule	competition of Shh649 binding to Ptch1 cells (in words) (Ptch1)	EC50 (Hh signaling) [nM]	Shh binding of Hhip1β12 mutants (in words) (biotinylated-ShhN-Cys)	IC50 fold change versus wildtype Hipβ12 (Shh signaling; Gli-luciferase co-culture) [fold]	IC50 (Shh signaling; Gli-luciferase co-culture, 24 hrs, read-out: IC50 inhibition of Shh signaling) [nM]	maximal inhibition (Shh signaling; at saturating conditions) [%]	binding to 293 cells at high concentrations [1]
Ihh: human Indian Hedgehog, residues 29-202	dose dependent manner	16					
T154I: type A1 brachydactyly mutant Ihh T154I		330					
D383R: Hhip L2 mutant of Hhip1β12 with D383 changed to R (protein) MLKMLSFKLLLLAVALGFFEGDAKFGERNEGSGARRRRCLNGNPPKRLKRRDRRMMSQLELLSGGEMLCGGFYPRLSCCLRSDSPGLGRLENKIFSVTNNTECGKLLEEIKCALCSPHSQSLFHSPEREVLERDLVLPLLCKDYCKEFFYTCRGHIPGFLQTTADEFCFYYARKDGGLCFPDFPRKQVRGPASNYLDQMEEYDKVEEISRKHKHNCFCIQEVVSGLRQPVGALHSGDGSQRLFILEKEGYVKILTPEGEIFKEPYLDIHKLVQSGIKGGDERGLLSLAFHPNYKKNGKLYVSYTTNQERWAIGPHDHILRVVEYTVSRKNPHQVDLRTARVFLEVAELHRKHLGGQLLFGPDGFLYIILGDGMITLDDMEEMRGLSDFTGSVLRLDVDTDMCNVPYSIPRSNPHFNSTNQPPEVFAHGLHDPGRCAVDRHPTDININLTILCSDSNGKNRSSARILQIIKGKDYESEPSLLEFKPFSNGPLVGGFVYRGCQSERLYGSYVFGDRNGNFLTLQQSPVTKQWQEKPLCLGTSGSCRGYFSGHILGFGEDELGEVYILSSSKSMTQTHNGKLYKIVDPKRPLMPEECRATVQPAQTLTSECSRLCRNGYCTPTGKCCCSPGWEGDFCRTAKCEPACRHGGVCVRPNKCLCKKGYLGPQCEQVDRNIRRVTRAGILDQIIDMTSYLLDLTSYIV	no inhibition		inability	~13	57	~50	
Hhip1β12-Fc: Fc-tagged Hhip1β12 (protein, left off: a dimerising Fc or GST) SNYLDQMEEYDKVEEISRKHKHNCFCIQEVVSGLRQPVGALHSGDGSQRLFILEKEGYVKILTPEGEIFKEPYLDIHKLVQSGIKGGDERGLLSLAFHPNYKKNGKLYVSYTTNQERWAIGPHDHILRVVEYTVSRKNPHQVDLRTARVFLEVAELHRKHLGGQLLFGPDGFLYIILGDGMITLDDMEEMDGLSDFTGSVLRLDVDTDMCNVPYSIPRSNPHFNSTNQPPEVFAHGLHDPGRCAVDRHPTDININLTILCSDSNGKNRSSARILQIIKGKDYESEPSLLEFKPFSNGPLVGGFVYRGCQSERLYGSYVFGDRNGNFLTLQQSPVTKQWQEKPLCLGTSGSCRGYFSGHILGFGEDELGEVYILSSSKSMTQTHNGKLYKIVDPKRPLMPEECRATVQPAQTLTSECSRLCRNGYCTPTGKCCCSPGWEGDFCRTAKCEPACRHGGVCVRPNKCLCKKGYLGPQCE	inhibit Ptch1-specific Shh cell binding in a dose-dependent manner						bind nonspecifically to 293 cells
